{"source": "the domain aggregation screens of Martell et al. (2025)", "data": [{"experiment": "soluble fraction after stress (log2 fold change); higher = more stays soluble; pooled small domains, quantitative proteomics", "conditions": "stress: pH 4", "in_short": "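Small protein domains from pooled custom libraries were exposed to pH 4, then quantified with high-throughput quantitative proteomics. The fold change in how much of each domain remains soluble is read as aggregation propensity. It is given as log2, with higher values meaning more stayed soluble.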", "values": [{"sequence": "HMGQARQSAIRELGNDPTSGKKITVRSGRYGPYVTDGEVNASLRKGDDPQTIDLDRAIELLAARREKLG", "soluble fraction (log2)": -0.324}, {"sequence": "HMGQDGFIGLEAAKKLVLQKLGLTSAEFIKAELDAEDRKYELELIVDGIEYDFDIDAYSGAFLKQEQETV", "soluble fraction (log2)": 0.122}, {"sequence": "HMGQEEKDIFLKLINISGIGPKLALNILSGIEASELEEAVRNTNVTRLSMVPGIGQKTALRIIMELSDKLE", "soluble fraction (log2)": -0.881}, {"sequence": "HMGQELTMPDLKSMSRSNAEEKLKKMGLKLGAVFEENAKEPAGTVINQDPRSGSKITKGQTVDITVSLGEK", "soluble fraction (log2)": 0.0104}, {"sequence": "HMGQERAVPDVKGQSFDMAQGNISRAGLKAVVTDSVYDSYARPGTVVEQSPIPLAKIKRGGTVYLTLVA", "soluble fraction (log2)": -0.0752}, {"sequence": "HMGQGSAFVYYEVLPKQTEYSLTRKLGLGYADLLSLNPQLARGLQAGMVLKIPRDKAGNLEVKNDLILE", "soluble fraction (log2)": 0.165}, {"sequence": "HMGQISLSVNAIPEKAEVILDGNSIGNTPIRKNTITPGSHMFEIEKKGYAPISYDIYVNPSKAINLDFFM", "soluble fraction (log2)": -0.153}, {"sequence": "HMGQKDYKTRLQEYFAKQGLKVNYEDTSHGPDHNKNFSTDVFLDGKIIGSGIGKSKKSSQQSAAKDALNIL", "soluble fraction (log2)": "≥ 0.43"}, {"sequence": "HMGQLIGKEEAKQIALSRAGVAEGDISRYESELDTDDGKTKYEISFHVGRVEYDIEINAVTGAVEKFEMDN", "soluble fraction (log2)": 0.0113}, {"sequence": "HMGQTDTIIKTTTDLYYEMSTMSDDDKLVVAQTLRDVWMAVGRWSGKLSKKQREKVAEVKRVLGE", "soluble fraction (log2)": -0.5}, {"sequence": "HMGQVAKPPLKELGADPVTGKPMVLKDGRFGPYVTDGEYNASLRKDDDIETIGVERAAELLQIRREKGP", "soluble fraction (log2)": -0.0291}, {"sequence": "HMGQVGIPFSDFLAEVENGQVREVVIKGNDISGTFNDNRGFSTYAPNDPNLVEKLTKRGVVINAQPTE", "soluble fraction (log2)": 0.123}, {"sequence": "HMGQVSEAGELEVAADRVIAANPEAVTKYKSGNENILQFLVGQMMKETKGAANPQVAAEILRKKIV", "soluble fraction (log2)": 0.0296}, {"sequence": "HMGRELDLNQRVYDFIHDIADEVRTDEGTFSANQMMERFLFPGDLQSVPIGRLSGGERRRLYLLSVLMVKI", "soluble fraction (log2)": -1.15}, {"sequence": "HMGRFPSLTPVVIDALTAQYREHPGWTVQLHVDNLRVVLAANQTPLPSYPTIRRYLLAQGMRRQTRP", "soluble fraction (log2)": -0.176}, {"sequence": "HMGRLNMRRIRDVLRLKFGQGLSERQVAASLGLSKTSVGTYLHRARQAGLTWPLPQGLDDDGLELLLFP", "soluble fraction (log2)": 0.0376}, {"sequence": "HMGRMTRKDRALATDLYGRIVGNVDDFHEGRIDYETFSERQRGLWTTLDAAGPEVKRAVLADIRERL", "soluble fraction (log2)": 0.23}, {"sequence": "HMGRWQPSTSAKQHGESALLLERLLHLERLTVSEAFHVLTINHRLNLSLPEYRSLLAVVQLPK", "soluble fraction (log2)": -1.31}, {"sequence": "HMGRYDWIEQIDDPVLAERLKHLTEDDLELLTRYVFEDATQKELASQYGIGQQSVSKRLKKLKSFLTK", "soluble fraction (log2)": -0.683}, {"sequence": "HMGSATAPDLKGLTYEQAQTKAEDAGYNIEKGEDVYDNDVEKGKVASQDPEAGAEAKEGSVITVNISK", "soluble fraction (log2)": 0.168}, {"sequence": "HMGSFAADVGRMVRLGRAKRGISRRKLAADSGISERYLAQIEGGQGNPSVNVLKAIADAISVPVFELLPH", "soluble fraction (log2)": -0.197}, {"sequence": "HMGSFDDAPDQLRQSILQLLAEGPLPPSAITERLNISREDATEALQQLLDEQRIFAVNGMLQLQPG", "soluble fraction (log2)": -0.538}, {"sequence": "HMGSFTDKQIKQAFGVLNDPRFKQGNYDGAVAVINKIAPGLADHPSVANALKRANEATQDIAQQTQA", "soluble fraction (log2)": 0.161}, {"sequence": "HMGSGQIRYITENTVRVVYGTSKENEFVFQDGKPYPKDTPYHIHYTRNLEEYFMSGVEHDKNSKIILKVD", "soluble fraction (log2)": -0.792}, {"sequence": "HMGSGVNVTVNGKRMNLPLKDDHIIFVDIFNYIDFDLSKPKGSIVLKLNGRDAGYTDPIKDGDVIDIYWQ", "soluble fraction (log2)": -0.686}, {"sequence": "HMGSIDYLVGSRLRQYRRLRGYSLIEFSAMLHRSKSAISKYERGEVSIDLRTLNEMARLLDIPLSGLLL", "soluble fraction (log2)": -0.283}, {"sequence": "HMGSIEASFEEDVRRYLARKSMTTTEISKKMRQKRPDMSRDQLMTLLANAIKRIKPIKKKIKGTLYLSLE", "soluble fraction (log2)": 0.259}, {"sequence": "HMGSIMIIVLKENAPQQAAEKLMKEIRAKGLQIDVSKGTRKTVLGLVGDTSVIDMEHVQGYDYVDKVLRV", "soluble fraction (log2)": -0.674}, {"sequence": "HMGSKDLPFSTFMSEIDKGNITSVDIRGNEIQGTFANGTKFRTYSPNYPNLVEKLNGKGVSITAGPV", "soluble fraction (log2)": 0.211}, {"sequence": "HMGSKKITIYVSGEVKNPGIVTLNSDQRLASAVEKLGGVTENADMNNINLAMKLEDEMHYIIPKKGEK", "soluble fraction (log2)": 0.149}, {"sequence": "HMGSKQVSVPDVRNLDYERASQQLREAGFVVGDVLRIRDDRAPAGTVIAQSPAAPALVPENARVSLLVSSG", "soluble fraction (log2)": 0.00984}, {"sequence": "HMGSLAVVPSLTGKTLQEAQSKAADYGLALEIEGYVASTAVDYGRIVSQSPDAGFSVKSGSSVKVSVSAG", "soluble fraction (log2)": "≥ 0.43"}, {"sequence": "HMGSLGRAIRSRREKMKVGLEELAAKTGLSESHISDIEEGRGFAPVGDILKIARALTIDPGELLK", "soluble fraction (log2)": 0.426}, {"sequence": "HMGSLGSLLKSVRNQRGLSRQQMAQSLNIGVRAIEQIEEGERKPDLELLNRYARGLMDPSVT", "soluble fraction (log2)": -0.138}, {"sequence": "HMGSLKEKIVLLEKLYQQNPSEEIKLLLINTYQLNHQYIQARKLFFTLTPEQKEKLPLASEFLIFL", "soluble fraction (log2)": -0.725}, {"sequence": "HMGSLNDQVMKYIDALPSAFNKRELDFLIERGVKEFALNGEYLEKAIINEYKLTADTYHRER", "soluble fraction (log2)": 0.129}, {"sequence": "HMGSLQPLLLAAIDALQTHIRSGLPFRVEERLAELDQFRTELQNGSVPPQRGVNRLWAFYEDEFRL", "soluble fraction (log2)": -0.386}, {"sequence": "HMGSLRSALDGIPGIGEQYQKRLLAQFGSVKAMRSASVEDFEAVRGIGRAKAQALYDALHAG", "soluble fraction (log2)": 0.13}, {"sequence": "HMGSLVVVPNLVGQNYDEVKLSTKYSDFEIVQKNTEYSEAPAGQIIKQDPEAGTKVKKHSTINVTVSK", "soluble fraction (log2)": -0.287}, {"sequence": "HMGSQELIQLGERIRQKRKDSHLTQETFAEKAGISVNTVSRIEGGQAAMSIEIFAKLVEILDADANELLG", "soluble fraction (log2)": -1.07}, {"sequence": "HMGSRAEAKEFLQTMLADGRQLATDMEEARQAHDIADRTLRRARKELNVQVYRDGNAWYWELPTPIK", "soluble fraction (log2)": -0.567}, {"sequence": "HMGSREVPFSDFISKVESGSVLEVVLRGRQVEGLTDANERFQTQIPNYPALFEILERNQVRTRVEPT", "soluble fraction (log2)": -0.814}, {"sequence": "HMGSTATVIASRLNMRASASTTGALLTKIPNGATVTVLGTTGAWSHIRYGSYTGYVMSQYLRING", "soluble fraction (log2)": -0.211}, {"sequence": "HMGSTVRIVVPAADIPAYKDIQPSDLEYREVPKDEISEDAVTDPQEVINKYSTSPLYAGWPINKNIIET", "soluble fraction (log2)": -0.202}, {"sequence": "HMGSYANAWQLAEHAAKDMLGEVIYLLDGKEVHAGILETMSAESIKTASAENVDGKVVIRLVSK", "soluble fraction (log2)": -0.371}, {"sequence": "HMGSYIGEAKAKEIALSHAGVSASQATFVRSQFEYDDGRAVYDVDFWSGNKEYDYEIDAKSGTIVSYDFD", "soluble fraction (log2)": 0.0669}, {"sequence": "HMGSYVVQLGAFAIRANAEKLAREVDGSIATSGRFSLVRVGPFTSRGQAEQALAKLRARGYSDALIHSL", "soluble fraction (log2)": -0.234}, {"sequence": "HMGTDFRPVFQYVDELVRAGEFTNLKGMIYFTDGRGIFPEKKPDYDAAFVFLDDGYDPPDVPVWAIKLVL", "soluble fraction (log2)": -0.709}, {"sequence": "HMGTGSSAERITMLNSILERQIQAMEIQGNPDAPIVNIQKIYTTLQRIVETAGLKDVDQFFMNPLQGQKEM", "soluble fraction (log2)": -0.407}, {"sequence": "HMGTIRAPMPGTILKINVVDGDSVTKGDVLLILESMKMENSITSPKTGSVTSVYVSEGDPVQHGETLIDL", "soluble fraction (log2)": -1.22}]}]}
